The record followed here is patent publication US20260176352A1 (BIRD ROCK BIO, published 2026).

The target in experiment [1] is T1, mouse CB1 (mouse, UniProt P47746 1-473).
T1 construct: whole, on cells; also called TRexCHO Mouse CB1
The experiment is described as follows: flow cytometry on cells expressing the target. On the technique in general: In flow cytometry, cells or beads pass a laser one at a time.

Experiment [2] addresses T2, TRex CHO A56 over-expressed CB1 (CB1 T210A/fusion partner) (UniProt P21554 1-472).
T2 construct: whole, on cells; The fusion partner stands inside the CB1 chain in place of ICL3, not at its end; also called Trex-CHO CB1 T210A/fusion partner; not shown: fusion partner that replaces ICL3
As to the kind of experiment: flow cytometry, A56 cells; batch 5.9 mg/ml. How it is done: (§1) To further assess TRex CHO parental cells, TRex CHO A56 overexpressed CB1, Native human CB1 TRex CHO A156, 5HT2B, Mouse CB1 and human CB2 were used to examine the specificity of IgG binding. 100 μl of 1×10⁶ cells/ml of cells were incubated with primary antibody IgGs in 3-fold serial dilutions starting from 1 μM to 0.5 nM for 30 minutes on ice. After being washed with 200 μl of FACS buffer twice, cells were incubated with secondary antibody for 30 minutes on ice. Cells were washed with 200 μl of FACS buffer twice and transferred to BD Falcon 5 ml tube and analyzed by FACS.
(§2) For selected binders, full binding curves were generated on CB1 receptor by testing a range of concentrations. Three-fold serial dilutions from 1 μM to 0.1 μM were prepared. Selectivity was determined by measuring binding to cells expressing 5HT2B or CB2, relative to binding to A156 (native human CB1 receptor expressing) or A56 (overexpressed-CB1 receptor with the T210A modification and ICL3 replacement with fusion partner) by flow cytometry. […] PE-conjugated anti-mouse (for detection of anti-CB2) and PE conjugated anti-human antibodies were used to detect CB2 and 5HT2B, respectively.

Experiment [3] addresses T3, native full length human CB1 receptor (cannabinoid 1 receptor) (human, UniProt P21554 1-472).
T3 construct: whole, on cells; also called A156; Native human CB1 TRex CHO A156
The experiment is described as follows: flow cytometry, A156 cells; batch 5.9 mg/ml. On the procedure:
as §1, §2

Experiment [4] deals with T2, TRex CHO A56 over-expressed CB1 (CB1 …). As to the kind of experiment: flow cytometry, A56 cells; batch 4.85 mg/ml. How it is done: as §1, §2
Experiment [5] shares this target. The experiment is described as follows: flow cytometry, A56 cells; batch 5.28 mg/ml. How it is done:
as §1, §2

The target is the same in experiment [6]. The experiment is described as follows: flow cytometry, A56 cells; batch 5.78 mg/ml. How it is done:
as §1, §2

Experiment [7] has as its target T3, native full length human CB1 receptor …. The experiment is described as follows: flow cytometry, A156 cells; batch 4.85 mg/ml. On the procedure:
as §1, §2

Experiment [8] shares this target. The experiment is described as follows: flow cytometry, A156 cells; batch 5.28 mg/ml. How it is done:
as §1, §2

Experiment [9] shares this target. As to the kind of experiment: flow cytometry, A156 cells; batch 5.78 mg/ml. On the procedure:
as §1, §2

Experiment [10] shares this target. As to the kind of experiment: flow cytometry, IgG titrated on cells. How it is done: as §1, §2
Experiment [11] deals with T2, TRex CHO A56 over-expressed CB1 (CB1 …). As to the kind of experiment: flow cytometry, IgG titrated on cells. On the procedure:
as §1, §2

For experiment [12], the target named is T4, human CB2 (human, UniProt P34972 1-360).
T4 construct: whole, on cells; also called TRexCHO Human CB2
T4 sequence (P34972 whole entry): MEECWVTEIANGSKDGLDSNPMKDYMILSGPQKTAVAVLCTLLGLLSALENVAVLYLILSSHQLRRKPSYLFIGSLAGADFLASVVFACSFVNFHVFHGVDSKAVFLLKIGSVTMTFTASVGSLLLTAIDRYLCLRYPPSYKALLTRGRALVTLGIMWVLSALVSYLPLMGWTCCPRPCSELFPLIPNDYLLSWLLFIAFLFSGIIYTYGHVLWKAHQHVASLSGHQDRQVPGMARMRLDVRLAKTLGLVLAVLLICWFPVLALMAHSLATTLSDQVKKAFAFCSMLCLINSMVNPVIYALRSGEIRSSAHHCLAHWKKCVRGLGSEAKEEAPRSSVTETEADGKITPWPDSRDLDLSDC
As to the kind of experiment: flow cytometry, IgG titrated on cells. How it is done: as §1, §2

Experiment [13] concerns the target 5HT2B (expression cell line) (Homo sapiens (Human), UniProt P41595 1-481). The experiment is described as follows: flow cytometry, IgG titrated on cells. On the procedure:
as §1, §2

Experiment [14] deals with T5, A138 iCAPS (CB1 with ICL3 native sequence replaced with protein 1 sequence) (human, UniProt P21554 99-414).
T5 construct: The insert stands inside the chain in place of ICL3
The experiment is described as follows: ELISA, purified IgG on A138 CB1 iCAPS. On the procedure: (§3) Purified IgG was tested for binding to purified CB1 receptor (CB1 Conformation Antigen Presenting System (iCAPS)) by ELISA. Non-biotinylated antigens (e.g. empty iCAPS) were coated directly on Maxisorp plates. The primary antibodies were purified IgGs with 1:3 serial dilutions, incubated on the plate for 1 hour. After 3 rounds of washing with PBST, secondary antibodies HRP goat anti-mouse IgG (Abmart) or HRP goat anti-human IgG (Sigma), depending on the species of the IgGs were added and incubated for another hour. The plates were washed three times with PBST, then developed with TMB (Biopanda). HCl was added to the plates to stop the reaction. Absorbance at 450 nm was read on Emax precision microplate reader (Molecular Devices).

For experiment [15], the target named is T6, A139 iCAPS (CB1 with ICL3 native sequence replaced with BRIL) (human, UniProt P21554 99-414).
T6 construct: The insert stands inside the chain in place of ICL3
As to the kind of experiment: ELISA, purified IgG on A139 CB1 iCAPS. How it is done:
as §3
Background: An ELISA detects its analyte on a solid surface through an enzyme-linked reagent.

The target in experiment [16] is T3, native full length human CB1 receptor …. As to the kind of experiment: binding to CB1 cells (FIG. 12); unlabeled P4B5.
The target is the same in experiment [17]. As to the kind of experiment: cell-based or functional assay.
Experiment [18] has the same target. The experiment is described as follows: cell-based or functional assay. This is another data set of the same source.
Experiment [19] has the same target. The experiment is described as follows: cell-based or functional assay. This is another data set of the same source.
For experiment [20], the target named is T2, TRex CHO A56 over-expressed CB1 (CB1 …). The experiment is described as follows: flow cytometry, TRexCHO A56 cells. How it is done: (§4) After being washed with 200 μl of FACS buffer twice, cells were incubated with PE conjugated anti-human secondary antibody (Southern Biotech) for 30 minutes on ice. Cells were washed with 200 μl of FACS buffer twice and transferred to BD Falcon 5 ml tube and analyzed by flow cytometry (BD FACScalibur).

Experiment [21] deals with T3, native full length human CB1 receptor …. As to the kind of experiment: flow cytometry, TRexCHO A156 cells. How it is done: as §4
In experiment [22] the target is T2, TRex CHO A56 over-expressed CB1 (CB1 …). As to the kind of experiment: flow cytometry, A56 cells; batch 1.01 mg/ml. On the procedure: as §1, §2
Experiment [23] has the same target. As to the kind of experiment: flow cytometry, A56 cells; batch 1.25 mg/ml. How it is done:
as §1, §2

The target in experiment [24] is T3, native full length human CB1 receptor …. The experiment is described as follows: flow cytometry, A156 cells; batch 0.49 mg/ml. How it is done: as §1, §2
Experiment [25] has the same target. The experiment is described as follows: flow cytometry, A156 cells; batch 1.01 mg/ml. How it is done:
as §1, §2

The target is the same in experiment [26]. As to the kind of experiment: flow cytometry, A156 cells; batch 1.25 mg/ml. On the procedure:
as §1, §2

Experiment [27] has the same target. As to the kind of experiment: flow cytometry, TRex-CHO human CB1 cells; mean ± SD. On the procedure:
(§5) TRex CHO parental cells, and TRex-CHO cells stably transfected with tetracycline inducible human CB1, human CB2 or mouse CB1 expression constructs were harvested. […] Cells were then centrifuged at 4° C. at 1600 rpm for 3 minutes; supernatant was aspirated and cells were washed with 200 μL FACS buffer. The washing procedure was repeated twice. After the final wash, cells were re-suspended in FACS buffer containing PE-conjugated anti-human Fc secondary antibody (1:200 dilutions) and incubated at 4° C. for 30 minutes. Cells were washed with 200 μL FACS buffer twice and analyzed by flow cytometry (Guava). Data analysis and measurement of binding affinity (KD) was performed using GraphPad Prism software.

Experiment [28] shares this target. As to the kind of experiment: flow cytometry, TRex-CHO human CB1 cells; mean of batch 1. How it is done: as §5
The target is the same in experiment [29]. The experiment is described as follows: flow cytometry, TRex-CHO human CB1 cells; mean of batch 2. How it is done: as §5
Experiment [30] shares this target. As to the kind of experiment: flow cytometry, TRex-CHO human CB1 cells; mean of batch 3. How it is done: as §5
Experiment [31] deals with T1, mouse CB1. The experiment is described as follows: flow cytometry on TRex-CHO mouse CB1 cells, lower panel. On the procedure:
as §4

The target of experiment [32] is T4, human CB2. The experiment is described as follows: flow cytometry on TRex-CHO human CB2 cells, middle panel. How it is done: as §4
The target of experiment [33] is T3, native full length human CB1 receptor …. As to the kind of experiment: flow cytometry on TRex-CHO cells with tetracycline inducible human CB1. How it is done:
as §5

For experiment [34] the target is unchanged. As to the kind of experiment: flow cytometry, A156 cells; batch 1.01 mg/ml; A156 cells; batch 1.01 mg/ml, first of two such rows. How it is done: as §1, §2

Values joined by “and” are separate entries in the source; they are usually repeats but may differ in a detail not shown here. Equal entries are not always repeated.

Chain of 5HT2B (expression cell line) (P41595 whole entry): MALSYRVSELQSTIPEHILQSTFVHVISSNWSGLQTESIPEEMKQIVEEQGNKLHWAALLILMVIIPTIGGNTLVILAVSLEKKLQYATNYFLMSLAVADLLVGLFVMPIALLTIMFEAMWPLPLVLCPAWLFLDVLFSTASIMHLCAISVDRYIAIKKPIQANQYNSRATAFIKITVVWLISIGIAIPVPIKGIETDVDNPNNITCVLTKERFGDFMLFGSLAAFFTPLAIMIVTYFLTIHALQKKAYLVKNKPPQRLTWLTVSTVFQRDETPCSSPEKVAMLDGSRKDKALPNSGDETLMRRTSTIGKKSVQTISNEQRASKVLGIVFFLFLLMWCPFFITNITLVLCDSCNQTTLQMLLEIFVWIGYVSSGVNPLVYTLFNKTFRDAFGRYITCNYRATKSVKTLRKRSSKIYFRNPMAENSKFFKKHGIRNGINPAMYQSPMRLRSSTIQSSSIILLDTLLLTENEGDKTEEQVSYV
T1 sequence (P47746 whole entry): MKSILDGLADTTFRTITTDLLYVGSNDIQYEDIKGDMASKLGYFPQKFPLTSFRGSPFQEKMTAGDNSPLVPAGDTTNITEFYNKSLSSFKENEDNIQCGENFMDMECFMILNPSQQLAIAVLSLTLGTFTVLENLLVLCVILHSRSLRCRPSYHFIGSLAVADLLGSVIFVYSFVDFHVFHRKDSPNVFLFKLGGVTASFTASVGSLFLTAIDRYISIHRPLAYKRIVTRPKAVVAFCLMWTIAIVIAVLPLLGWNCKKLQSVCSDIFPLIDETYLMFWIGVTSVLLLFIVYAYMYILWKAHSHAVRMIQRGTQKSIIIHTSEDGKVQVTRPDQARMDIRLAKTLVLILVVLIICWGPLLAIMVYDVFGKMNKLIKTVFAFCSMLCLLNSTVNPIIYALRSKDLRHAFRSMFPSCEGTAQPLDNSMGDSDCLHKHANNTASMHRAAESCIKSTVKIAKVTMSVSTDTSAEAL

B1: 36E12B6C2 IgG (hybridoma-derived) (antibody, V domains shown)
VH: QVQLQQSGAELVRPGSSVKISCKASGYEFSYYWMNWVKQRPGQGLQWIGQIYPGDGDTNYNGKFKGKATLTADKSSSTAYMHLTSLTSEDSAVYFCARSGGNPFAFWGQGTLVTVSA
VL: DIQMTQTSSSLSASLGDRVTFSCRASQDISNYLNWYQQKPDGTVKLLIYYTSRLHSGVTSRFRGSGSGTDYSLTISNLEQEDVATYFCQQGHTLPWSFGGGTKLEIKR
Turning to B1, the binding result in the experiment with mouse CB1 [1] is “no binding (tested: 1 µM)”; with human CB2 [12], “no binding (tested: 1000 nM)”; in [13], “no binding (tested: 1000 nM)”. Besides, the dissociation constant Kd was determined as 60.2 nM in [2]; 26 nM in [3]; 29.3 nM in experiment [4]; 51.9 nM in experiment [5]; 69.4 nM in [6]; 64 nM in experiment [7]. The values for the Kd in experiment [8] and in experiment [9] were 27.7 nM and 151 nM, respectively. The figures for the 50% effective concentration (EC50 (read off the curve)) in experiment [10] and in [11] were ~60 nM and ~40 nM, respectively.

B2: PA2LR3-P4B5 (chimeric) (antibody, human IgG1, kappa, V domains shown)
VH: EVQLQQSGAELVRPGSSVKISCKASGYAFSYYWMNWVKQRPGQGLEWIGQIYPGDGDTNYSGRFKGKATLTADKSSSTAYIQLSSLTSEDSAVYFCARSHGNYFPYWGQGTLVTVSA
VL: DIVLNQSPAIMSASLGERVTMTCTASSSVSSSYLHWYQQKPGSSPKLWIYSTSNLASGVPARFSGSGSGTSYSLTISSMEAEDAATYYCHQYHRSPLTFGAGTKLEIKR
Regarding B2, the 50% effective concentration (EC50) in experiment [14] is 0.24 nM; in experiment [15] it was 0.24 nM; in experiment [16] it was 60.5 nM.

B3: PA13R3-P1C4 (chimeric) IgG (antibody, V domains shown)
VH: EVQLQQSGAELVRPGVSVKISCKASGYEFSYYWMNWVKQRPGQGLEWIGQIYPGDGETKYNGKFKGKATLTADKSSNTAYMQLSSLTSEDSAVYFCARSHGNYLPYWGQGTLVTVSA
VL: DIVLTQSPAIMSASLGERVTMTCTASSSVSSSYLHWYQQKPGSSPKLWIYSTSNLASGVPARFSGSGSGTSYSLTISSMEAEDAATYYCHQYHRSPPTFGAGTKLELKR
notes: Phage-derived mouse variable regions on human constant regions; also called Chimeric P1C4-IgG; PA13R3-P1C4 IgG
Take B3: in experiment [17], the “IC50, cAMP functional antagonist assay” value was 90 nM. The “IC50 (nM), cAMP assay” value in [18] worked out at 93 nM. Moreover, the “cAMP IC50 (nM) Mean of Batch 1 [n]” value in [19] was 120 nM. In experiment [19], the “cAMP IC50 (nM) Mean of Batch 2 [n]” value was 155 nM. Also, the Kd is 10.5 nM in experiment [20]; 25 nM in experiment [21]; 27.3 nM in experiment [22]; 50.6 nM in experiment [23]; 187 nM in [24]; 171 nM in experiment [25]. The dissociation constant (Kd) was found to be 72.6 nM in experiment [26]; 103 nM in experiment [27]; 92 nM in experiment [28]; 116 nM in experiment [29]; 96 nM in experiment [30]; 40.5 nM in experiment [34]. For the same molecule, the EC50 in experiment [14] stood at 0.172 nM; in [15] it was 0.175 nM. Besides, the “EC50 (read off the curve)” value in [10] is ~30 nM; in [11], ~20 nM; in experiment [33], ~60 nM and ~40 nM. For the same molecule, the binding result in [13] is recorded as “no binding (tested: 1000 nM)”; with mouse CB1 [31], “no binding (tested: about 300 nM (last point))”; in the experiment with human CB2 [32] it was “no binding (tested: about 300 nM (last point))”.

In general, Kd refers to the concentration at which binding is half-saturated. Low readings indicate tighter binding, high ones weaker binding. The term EC50 (read off the curve) denotes the concentration giving half of the maximal effect. A low value points to an effect from little substance. Usually EC50 stands for the concentration giving half of the maximal effect. A lower EC50 goes with an effect from little substance.
